Measurements: publication PMC7001585 (Proteins, 2017)

Target: the molecule itself
Experiment: crystal structure

B1: CepR2 ligand binding domain (CepR2-LBD, 1-170) (domain or fragment)
chain: SNAMDLTILHDCFDALQRAPTAEAAFPPIAAAAAALGFRYCVYGLRRTLPLARPDMQIVGNHPREWEHRYVKFGYVTIDPIIKRVASQPRPVVWNAFDEPGDTAFWHDAACFGMRYGWSHGGYDRAGNLGVLTLVRDTTPLDADEISRLRAPCASLSHAAHAYLMPRLADPIA
modifications: selenomethionine (SeMet-substituted protein; SeMet53 named)
stoichiometry N: 2
